B1: Sth1EBM (Sth1_(1183–1240)) [Saccharomyces cerevisiae] / Taf14ET (Taf14_(174–244)) [Saccharomyces cerevisiae] (parent)
chain 1: EVKSSSVEIINGSESKKKKPKLTVKIKLNKTTVLENNDGKRAEEKPESKSPAKKTAAK
chain 2: KGSVDLEKLAFGLTKLNEDDLVGVVQMVTDNKTPEMNVTNNVEEGEFIIDLYSLPEGLLKSLWDYVKKNTE
B2: Snf5_(771–800) [Saccharomyces cerevisiae] / Taf14ET (Taf14_(174–244)) [Saccharomyces cerevisiae] (parent)
chain 1: SPPCYIIDHIPGHSLLLSIKLPGKVNTKEE
chain 2: B1 chain 2
B3: Ino80_(368–390) [Saccharomyces cerevisiae] / Taf14ET (Taf14_(174–244)) [Saccharomyces cerevisiae] (parent)
chain 1: DSKLNIKITLKQYHVKRLKKLIN
chain 2: B1 chain 2

Variants of: B1
Test: ITC
Conditions: with Taf14ET (Taf14_(174–244)) [Saccharomyces cerevisiae]

Row | screen value [kcal/mol] | Variant
1 | 6.7 | chain 1 V24A
2 | 5.27 | chain 1 L28A
3 | 7.23 | chain 1 L22A

Same assay, conditions: with Sth1EBM (Sth1_(1183–1240)) [Saccharomyces cerevisiae]

Row | screen value [kcal/mol] | Variant
4 | 1.21 | chain 2 I49R
5 | 5.99 | chain 2 F47R
6 | 8.16 | chain 2 F47A

Variants of: B2
Test: ITC
Conditions: with Taf14ET (Taf14_(174–244)) [Saccharomyces cerevisiae]

Row | screen value [kcal/mol] | Variant
7 | 0.55 | chain 1 L17A
8 | 0.52 | chain 1 I19A

Variants of: B3
Test: ITC
Conditions: with Taf14ET (Taf14_(174–244)) [Saccharomyces cerevisiae]

Row | screen value [kcal/mol] | Variant
9 | 3.42 | chain 1 L10A
10 | 4.41 | chain 1 I6A
